# B1: peptide HD2 (from tick evasin EVA4) / CCL1 (biotinylated, synthetic) (parent complex)
# chain 1: EEDDYTAYAPLTCYFT
# chain 2: KSMQVPFSRCCFSFAEQEIPLRAILCYRNTSSICSNEGLIFKLKRGKEACALDTVGWVQRHRKMLRHCPSKRK
# Variants of: B1
row,Variant,enrichment
1,chain 1 EEDDYTAYAPLTCYQT [chain 1 F15Q],0.462 log2 (difference from the parental peptide)
2,chain 1 EEDDYTAYAPLTCYRT [chain 1 F15R],-0.358 log2 (difference from the parental peptide)
3,chain 1 EEDDYTAYAPLTCYMT [chain 1 F15M],1.5 log2 (difference from the parental peptide)
4,chain 1 EEDDYTAYAPLTCYIT [chain 1 F15I],2.23 log2 (difference from the parental peptide)
5,chain 1 EEDDYTAYAPLTCYDT [chain 1 F15D],-3.07 log2 (difference from the parental peptide)
6,chain 1 EEDDYTAYAPLTCYKT [chain 1 F15K],-1.11 log2 (difference from the parental peptide)
7,chain 1 EEDDYTAYAPLTCYPT [chain 1 F15P],-0.0179 log2 (difference from the parental peptide)
8,chain 1 EEDDYTAYAPLTCYGT [chain 1 F15G],-3.15 log2 (difference from the parental peptide)
9,chain 1 EEDDYTDYAPLTCYFT [chain 1 A7D],0.378 log2 (difference from the parental peptide)
10,chain 1 EEDDYTYYAPLTCYFT [chain 1 A7Y],-2.42 log2 (difference from the parental peptide)
11,chain 1 EEDDYTTYAPLTCYFT [chain 1 A7T],-3.41 log2 (difference from the parental peptide)
12,chain 1 EEDDYTSYAPLTCYFT [chain 1 A7S],-0.477 log2 (difference from the parental peptide)
13,chain 1 EEDDYTGYAPLTCYFT [chain 1 A7G],-2.66 log2 (difference from the parental peptide)
14,chain 1 EEDDYTKYAPLTCYFT [chain 1 A7K],2.4 log2 (difference from the parental peptide)
15,chain 1 EEDDYTQYAPLTCYFT [chain 1 A7Q],2.46 log2 (difference from the parental peptide)
16,chain 1 EEDDYTPYAPLTCYFT [chain 1 A7P],-0.46 log2 (difference from the parental peptide)
17,chain 1 EEDDYTVYAPLTCYFT [chain 1 A7V],-4.61 log2 (difference from the parental peptide)
18,chain 1 EEDDYTAYAPLTFYFT [chain 1 C13F],-7.86 log2 (difference from the parental peptide)
19,chain 1 EEDDYTAYAPLTMYFT [chain 1 C13M],-7.16 log2 (difference from the parental peptide)

row,Variant,enrichment
1,chain 1 EEDDYTAYAPLTTYFT [chain 1 C13T],-4.75 log2 (difference from the parental peptide)
2,chain 1 EEDDYTAYAPLTRYFT [chain 1 C13R],-9.78 log2 (difference from the parental peptide)
3,chain 1 EEDDYTAYAPLTQYFT [chain 1 C13Q],-7.02 log2 (difference from the parental peptide)
4,chain 1 EEDDYTAYAPLTWYFT [chain 1 C13W],-8.88 log2 (difference from the parental peptide)
5,chain 1 VEDDYTAYAPLTCYFT [chain 1 E1V],-1.48 log2 (difference from the parental peptide)
6,chain 1 SEDDYTAYAPLTCYFT [chain 1 E1S],-1.56 log2 (difference from the parental peptide)
7,chain 1 MEDDYTAYAPLTCYFT [chain 1 E1M],-0.363 log2 (difference from the parental peptide)
8,chain 1 AEDDYTAYAPLTCYFT [chain 1 E1A],-1.47 log2 (difference from the parental peptide)
9,chain 1 NEDDYTAYAPLTCYFT [chain 1 E1N],-1.4 log2 (difference from the parental peptide)
10,chain 1 EEDDYTAYALLTCYFT [chain 1 P10L],-8.15 log2 (difference from the parental peptide)
11,chain 1 EEDDYTAYAVLTCYFT [chain 1 P10V],-9.61 log2 (difference from the parental peptide)
12,chain 1 EEDDYTAYAGLTCYFT [chain 1 P10G],-5.87 log2 (difference from the parental peptide)
13,chain 1 EEDDYTAYAWLTCYFT [chain 1 P10W],-5.49 log2 (difference from the parental peptide)
14,chain 1 EEDDYTAYAELTCYFT [chain 1 P10E],-5.54 log2 (difference from the parental peptide)
15,chain 1 EEDDYTAYADLTCYFT [chain 1 P10D],-1.68 log2 (difference from the parental peptide)
16,chain 1 EEDDNTAYAPLTCYFT [chain 1 Y5N],-6.94 log2 (difference from the parental peptide)
17,chain 1 EEDDYTAYAPLTCYFY [chain 1 T16Y],-0.704 log2 (difference from the parental peptide)
18,chain 1 EEDDYTAYAPLTCYFK [chain 1 T16K],-1.01 log2 (difference from the parental peptide)
19,chain 1 EEDDYTAYAPLTCYFI [chain 1 T16I],-0.756 log2 (difference from the parental peptide)

row,Variant,enrichment
1,chain 1 EEDDYTAYAPLTCYFD [chain 1 T16D],2.85 log2 (difference from the parental peptide)
2,chain 1 EEDDYTAYAPLTCYFR [chain 1 T16R],-4.51 log2 (difference from the parental peptide)
3,chain 1 EEDDYTAWAPLTCYFT [chain 1 Y8W],-3.69 log2 (difference from the parental peptide)
4,chain 1 EEDDYTAAAPLTCYFT [chain 1 Y8A],-8 log2 (difference from the parental peptide)
5,chain 1 EEDDYTADAPLTCYFT [chain 1 Y8D],-6.77 log2 (difference from the parental peptide)
6,chain 1 EEDDYTAIAPLTCYFT [chain 1 Y8I],-5.15 log2 (difference from the parental peptide)
7,chain 1 EEDDYRAYAPLTCYFT [chain 1 T6R],-1.22 log2 (difference from the parental peptide)
8,chain 1 EEDDYAAYAPLTCYFT [chain 1 T6A],2.46 log2 (difference from the parental peptide)
9,chain 1 EEDDYMAYAPLTCYFT [chain 1 T6M],-2.14 log2 (difference from the parental peptide)
10,chain 1 EEDDYKAYAPLTCYFT [chain 1 T6K],-3.59 log2 (difference from the parental peptide)
11,chain 1 EEDDYSAYAPLTCYFT [chain 1 T6S],4.57 log2 (difference from the parental peptide)
12,chain 1 EEDDYLAYAPLTCYFT [chain 1 T6L],-3.32 log2 (difference from the parental peptide)
13,chain 1 EEDDYTAYAPKTCYFT [chain 1 L11K],-0.661 log2 (difference from the parental peptide)
14,chain 1 EEDDYTAYAPMTCYFT [chain 1 L11M],2.12 log2 (difference from the parental peptide)
15,chain 1 EEDDYTAYAPHTCYFT [chain 1 L11H],-1.29 log2 (difference from the parental peptide)
16,chain 1 EEDEYTAYAPLTCYFT [chain 1 D4E],-2.17 log2 (difference from the parental peptide)
17,chain 1 EEDSYTAYAPLTCYFT [chain 1 D4S],-6.83 log2 (difference from the parental peptide)
18,chain 1 EEDWYTAYAPLTCYFT [chain 1 D4W],-2.57 log2 (difference from the parental peptide)
